According to PMC12441119:
Values belong to the binder of their own block, whether it stands above or below them.

Target: T1, HOIP (residues 854–1072), Q96EP0
T1 chain: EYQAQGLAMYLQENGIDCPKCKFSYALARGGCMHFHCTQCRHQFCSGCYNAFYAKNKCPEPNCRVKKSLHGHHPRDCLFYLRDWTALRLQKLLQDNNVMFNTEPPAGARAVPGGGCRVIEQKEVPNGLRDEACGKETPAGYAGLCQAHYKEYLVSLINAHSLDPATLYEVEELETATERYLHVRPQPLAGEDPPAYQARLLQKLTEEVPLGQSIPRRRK
Assay: ITC
Conditions: chain shown with the change

Kd: 20.9 µM
B1: STK4 (residues 11–326) wild type K59R (protein)
chain: RRQLKKLDEDSLTKQPEEVFDVLEKLGEGSYGSVYKAIHKETGQIVAIRQVPVESDLQEIIKEISIMQQCDSPHVVKYYGSYFKNTDLWIVMEYCGAGSVSDIIRLRNKTLTEDEIATILQSTLKGLEYLHFMRKIHRDIKAGNILLNTEGHAKLADFGVAGQLTDTMAKRNTVIGTPFWMAPEVIQEIGYNCVADIWSLGITAIEMAEGKPPYADIHPMRAIFMIPTNPPPTFRKPELWSDNFTDFVKQCLVKSPEQRATATQLLQHPFVRSAKGVSILRDLINEAMDVKLKRQESQQREVDQDDEENSEEDEMD

Kd: 28.5 µM
B2: STK4 (residues 1–326) wild type K59R (protein)
chain: METVQLRNPPRRQLKKLDEDSLTKQPEEVFDVLEKLGEGSYGSVYKAIHKETGQIVAIRQVPVESDLQEIIKEISIMQQCDSPHVVKYYGSYFKNTDLWIVMEYCGAGSVSDIIRLRNKTLTEDEIATILQSTLKGLEYLHFMRKIHRDIKAGNILLNTEGHAKLADFGVAGQLTDTMAKRNTVIGTPFWMAPEVIQEIGYNCVADIWSLGITAIEMAEGKPPYADIHPMRAIFMIPTNPPPTFRKPELWSDNFTDFVKQCLVKSPEQRATATQLLQHPFVRSAKGVSILRDLINEAMDVKLKRQESQQREVDQDDEENSEEDEMD

Kd: 115 µM
B3: STK4 (residues 1–487) wild type K59R (protein)
chain: METVQLRNPPRRQLKKLDEDSLTKQPEEVFDVLEKLGEGSYGSVYKAIHKETGQIVAIRQVPVESDLQEIIKEISIMQQCDSPHVVKYYGSYFKNTDLWIVMEYCGAGSVSDIIRLRNKTLTEDEIATILQSTLKGLEYLHFMRKIHRDIKAGNILLNTEGHAKLADFGVAGQLTDTMAKRNTVIGTPFWMAPEVIQEIGYNCVADIWSLGITAIEMAEGKPPYADIHPMRAIFMIPTNPPPTFRKPELWSDNFTDFVKQCLVKSPEQRATATQLLQHPFVRSAKGVSILRDLINEAMDVKLKRQESQQREVDQDDEENSEEDEMDSGTMVRAVGDEMGTVRVASTMTDGANTMIEHDDTLPSQLGTMVINAEDEEEEGTMKRRDETMQPAKPSFLEYFEQKEKENQINSFGKSVPGPLKNSSDWKIPQDGDYEFLKSWTVEDLQKRLLALDPMMEQEIEEIRQKYQSKRQPILDAIEAKKRRQQNF
